System: CD14+ monocytes
Experiment: Flow cytometry count of TH+ monocytes after in vitro treatment
Type: cell-based, human
Conditions: healthy donor monocytes, 2 million per well, 4 hours; TPA 100 ng/ml, TNFα 17 ng/ml, IL6 17 ng/ml, XPro1595 50 ng/ml; n=3 per group
Protocol: Monocytes were isolated from total PBMCs prepared as described above^51 using negative selection (Biolegend, 480048) per manufacturer's instructions. Total PBMCs were Fc-blocked to reduce nonspecific binding, followed by incubations with biotin-conjugated antibody cocktail containing antibodies against all subsets except CD14 (negative selection), followed by incubation with magnetic-Avidin beads, allowing all subsets other than CD14+ monocytes to be bound to the magnet. Monocyte purity/enrichment was routinely verified to confirm that the final cell population was greater than 95% pure CD14+ cells (FIG. S2). CD14+ monocytes were collected from the supernatant fraction, washed, counted and density adjusted such that 2 million CD14+ monocytes were seeded per well (FIG. 5A) and treated for 4 hours with vehicle, TPA (100 ng/ml, Biolegend, 755802)^7, TNFα (17 ng/mL, Biolegend, 570102)^61, XPro1595 (50 ng/ml), or IL6 (17 ng/mL) in an ultra-low-adherence 6-well plate (Corning, 3471) to prevent adherence. Suspended cells from each treatment group were aspirated and placed in a 15 ml conical tube, with any remaining adherent cells detached by incubation with 700 uL Accumax solution for 3 minutes (Innovative Cell Technologies, AM105) and added to suspended cells. […]

B1: TPA: tissue plasminogen activator, positive control for increased monocyte TH expression (Biolegend, 755802) (protein, UniProt P00750 36-562, looked up)
Tissue-type plasminogen …: SYQVICRDEKTQMIYQQHQSWLRPVLRSNRVEYCWCNSGRAQCHSVPVKSCSEPRCFNGGTCQQALYFSDFVCQCPEGFAGKCCEIDTRATCYEDQGISYRGTWSTAESGAECTNWNSSALAQKPYSGRRPDAIRLGLGNHNYCRNPDRDSKPWCYVFKAGKYSSEFCSTPACSEGNSDCYFGNGSAYRGTHSLTESGASCLPWNSMILIGKVYTAQNPSAQALGLGKHNYCRNPDGDAKPWCHVLKNRRLTWEYCDVPSCSTCGLRQYSQPQFRIKGGLFADIASHPWQAAIFAKHRRSPGERFLCGGILISSCWILSAAHCFQERFPPHHLTVILGRTYRVVPGEEEQKFEVEKYIVHKEFDDDTYDNDIALLQLKSDSSRCAQESSVVRTVCLPPADLQLPDWTECELSGYGKHEALSPFYSERLKEAHVRLYPSSRCTSQHLLNRTVTDNMLCAGDTRSGGPQANLHDACQGDSGGPLVCLNDGRMTLVGIISWGLGCGQKDVPGVYTKVTNYLDWIRDNMRP
For B1, the “number of TH+ monocytes, fold change relative to vehicle” value was “significant increases in TH-expressing monocytes relative to vehicle”.
